The record followed here is patent US20220243360A1 (ROCHE SEQUENCING SOLUTIONS, published 2022).

T1: biotin-labeled DsbA (UniProt P0AEG4 20-208, limits assumed, biotin-labeled)
T1 sequence (looked up): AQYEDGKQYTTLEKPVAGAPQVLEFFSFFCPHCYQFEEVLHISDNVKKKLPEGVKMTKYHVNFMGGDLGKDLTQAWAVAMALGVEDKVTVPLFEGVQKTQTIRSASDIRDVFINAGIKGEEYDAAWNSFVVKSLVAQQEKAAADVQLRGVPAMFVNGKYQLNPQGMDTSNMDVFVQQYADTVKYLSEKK

No end group written: not given here.

The target of one test is T1, biotin-labeled DsbA. Briefly: SPR, Biacore X100, biotin-DsbA on streptavidin chip, peptide as analyte.
Description: Kinetic analysis of the interaction between the discovered peptides and DsbA was performed using a Biacore XI00. Biotin-labeled DsbA (1 uM) was immobilized on streptavidin coated chip (GE Healthcare) to a target level of 1,000 response units in HBS-P+. […] Fourteen dilutions of peptide from 5000 nM to 0.6 nM in HBS-P+were flowed over the DsbA coated chip in triplicate with a contact time of 120 seconds and a dissociation time of 600 seconds. […] All peptides were amidated on the C-terminus.
As to DFWHGETCKVTQFDQ-NH2 [DFWHGETCKVTQFDQ-NH2], the equilibrium dissociation constant (Kd) was 84 nM.

Molecule DFWHGDTCKVTQFDQ-NH2 [DsbA_1_WT] yielded a Kd of 208 nM.

The molecule DFWHGEQCKVTQFDQ-NH2 [DFWHGEQCKVTQFDQ-NH2] gave a Kd of 53 nM.

WQYENWAITKWQCVK-NH2 [WQYENWAITKWQCVK-NH2] registered a dissociation constant (Kd) of 83 nM.

With YVYGMCWKDYTTDK-NH2 [YVYGMCWKDYTTDK-NH2], the affinity, expressed as Kd, was 78 nM.

VIVGQCLKK-NH2 [VIVGQCLKK-NH2] had a Kd of 622 nM.

Regarding YVYGMCWKDYTDTDK-NH2 [YVYGMCWKDYTDTDK-NH2], the Kd came out at 116 nM.

The molecule VIGQCLKN-NH2 [VIGQCLKN-NH2] gave a Kd of 623 nM.

In turn, HNWAAQCLKDQAKL-NH2 [HNWAAQCLKDQAKL-NH2] showed a Kd of 88 nM.

Turning to SIIGQCYKKDPSQAT-NH2 [SIIGQCYKKDPSQAT-NH2], the Kd stood at 553 nM.

Molecule SIIGMCYKKDPS-NH2 [SIIGMCYKKDPS-NH2] returned a Kd of 188 nM.

As to NDYQYKGQQCLDPKY-NH2 [NDYQYKGQQCLDPKY-NH2], binding was put at a Kd of 48 nM.

The molecule HNWAAQCLNPDQAKL-NH2 [HNWAAQCLNPDQAKL-NH2] gave a Kd of 57 nM.

As for VILGQCLKQ-NH2 [VILGQCLKQ-NH2], the Kd turned out to be 517 nM.

A further test concerns the target T1, biotin-labeled DsbA. Nature of the test: peptide microarray fluorescence (Cy5), peptide on the array, biotin-DsbA in solution.
Take PSPWATCDF-NH2 [PSPWATCDF-NH2]: the “SIGNAL INTENSITY” value was determined as 82.

As to DFWHGETCKVTQFDQ-NH2 [DFWHGETCKVTQFDQ-NH2], the “SIGNAL INTENSITY” value is 1800.

As for DFWHGDTCKVTQFDQ-NH2 [DsbA_1_WT], the “SIGNAL INTENSITY” value was 1750.

Consider DFWHGEQCKVTQFDQ-NH2 [DFWHGEQCKVTQFDQ-NH2], for which the “SIGNAL INTENSITY” value is 4590.

On to WQYENWAITKWQCVK-NH2 [WQYENWAITKWQCVK-NH2], for which the “SIGNAL INTENSITY” value came to 1430.

Take YVYGMCWKDYTTDK-NH2 [YVYGMCWKDYTTDK-NH2]: the “SIGNAL INTENSITY” value was determined as 2300.

On to VIVGQCLKK-NH2 [VIVGQCLKK-NH2], for which the “SIGNAL INTENSITY” value is 282.

Consider YVYGMCWKDYTDTDK-NH2 [YVYGMCWKDYTDTDK-NH2], for which the “SIGNAL INTENSITY” value was determined as 2110.

Consider VIGQCLKN-NH2 [VIGQCLKN-NH2], for which the “SIGNAL INTENSITY” value was 588.

As for HNWAAQCLKDQAKL-NH2 [HNWAAQCLKDQAKL-NH2], the “SIGNAL INTENSITY” value is 1760.

Regarding SIIGMCYKKDPS-NH2 [SIIGMCYKKDPS-NH2], the “SIGNAL INTENSITY” value stood at 1360.

NDYQYKGQQCLDPKY-NH2 [NDYQYKGQQCLDPKY-NH2]: the “SIGNAL INTENSITY” value was 3620.

As to HNWAAQCLNPDQAKL-NH2 [HNWAAQCLNPDQAKL-NH2], the “SIGNAL INTENSITY” value came to 2640.

On to VILGQCLKQ-NH2 [VILGQCLKQ-NH2], for which the “SIGNAL INTENSITY” value was found to be 965.

Another test deals with T1, biotin-labeled DsbA. Briefly: Biacore X100 per the table title, biotin-DsbA on streptavidin chip; paragraph 121 says Biacore or ITC (Duprez 2015).
In turn, PSPWATCDF-NH2 [PSPWATCDF-NH2] returned a dissociation constant (Kd) of 2900 nM.
